The target of experiment [1] is T1, human recPrP_(23-230) (Homo sapiens, UniProt P04156).
Experiment [2] has as its target T2, full-length recombinant mouse PrP (recPrP23-231) (Mus musculus, UniProt P04925).
T2 construct: source: recombinant, produced as described (Lysek & Wuthrich, 2004)
The experiment in a line: ELISA. Conditions: both partners purified. (An ELISA detects its analyte on a solid surface through an enzyme-linked reagent.)

A further experiment has as its target T3, peptide P17 (Mus musculus).
T3 chain: TWGQPHGGGWGQ
The experiment in a line: co-IP. Conditions: both partners purified.

Experiment [3] has as its target T4, full-length recombinant mouse PrP (recPrP_(23-231)) (Mus musculus, UniProt P04925).
T4 construct: source: recombinant, produced as described (Lysek & Wuthrich, 2004)
The experiment in a line: SPR; […]; 25°C; 10 mM Tris/HCl pH 8.5, 500 mM NaCl, 3 mM EDTA, 0.05% Tween-20; 1:1 Langmuir fit; ProteOn XPR36. The settings on record: both partners purified.

In experiment [4] the target is T2, full-length recombinant mouse PrP …. The experiment in a line: ELISA. Conditions: both partners purified. The source holds these as a separate data set.
Experiment [5] deals with T1, human recPrP_(23-230). In words: ELISA. The settings on record: both partners purified.

Read-outs that look alike come from different tables or passages of the source.

B1: BB_VH3-33 (antibody, V domains shown)
VH: QVQLVESGGGVVQPGRSLRLSCAASGFTFSSYGMHWVRQAPGKGLEWVAVIWYDGSNKYYADSVKGRFTISRDNSKNTLYLQMNSLRAEDTAVYYCAREHSYGGYFDYWGQGTLVTVSS
VL: not shown
Take B1: in the experiment with human recPrP_(23-230) [1], the binding result was “binds”.

B2: Fab71 (Fab, V domains shown)
VH: QVQLVESGGGVVQPGRSLRLSCAASGFTFSSYGMHWVRQAPGKGLEWVAVISYEGSNKYYADSVKGRFTISRDNSKNTLYLQMNSLRAEDTAVYYCARHVSYGGYFDYWGQGTLVTVSS
VL: not shown
notes: source: E. coli BL21(DE3), purified (IMAC)
As a reminder, the EC50 is the concentration at which the effect is half-maximal. Turning to B2, the EC50 in experiment [2] was determined as 24.9 nM.

B3: Fab71 (Fab, V domains shown)
VH: QVQLVESGGGVVQPGRSLRLSCAASGFTFSSYGMHWVRQAPGKGLEWVAVISYEGSNKYYADSVKGRFTISRDNSKNTLYLQMNSLRAEDTAVYYCARHVSYGGYFDYWGQGTLVTVSS
VL: not shown
notes: also called anti-OR_(51-91) Fab71; source: E. coli BL21(DE3), pPE2 vector, purified by IMAC (Ni-NTA)
One may read the Kd as the equilibrium constant for the complex coming apart. A word on the koff: it is a measure of how fast the partners let go of each other. Take B3: the binding result with peptide P17 is given as “binds”. In addition, in experiment [3], the Kd came out at 6.2 nM and the koff was 0.00245 s⁻¹.

B4: Fab8 (Fab, V domains shown)
VH: QVQLVESGGGVVQPGRSLRLSCAASGFTFSSYGMHWVRQAPGKGLEWVAVISYEGSNKYYADSVKGRFTISRDNSKNTLYLQMNSLRAEDTAVYYCARHYGGRLDYWGQGTLVTVSS
VL: not shown
notes: as for B2
Consider B4, for which the binding result in experiment [4] was “binds”.

B5: Fab12 (Fab, V domains shown)
VH: QVQLVESGGGVVQPGRSLRLSCAASGFTFSSYGMHWVRQAPGKGLEWVAVISYEGSNKYYADSVKGRFTISRDNSKNTLYLQMNSLRAEDTAVYYCARHYGGQLDYWGQGTLVTVSS
VL: not shown
notes: as for B2
Consider B5, for which the binding result in experiment [4] is recorded as “binds”.

B6: Fab10 (Fab, V domains shown)
VH: QVQLVESGGGVVQPGRSLRLSCAASGFTFSSYGMHWVRQAPGKGLEWVAVISYEGSNKYYADSVKGRFTISRDNSKNTLYLQMNSLRAEDTAVYYCARHYGGWFDYWGQGTLVTVSS
VL: not shown
notes: as for B2
As for B6, the binding result in experiment [4] is given as “binds”.

B7: BB_VH3-21 (antibody, V domains shown)
VH: EVQLVESGGGLVKPGGSLRLSCAASGFTFSSYSMNWVRQAPGKGLEWVSSISSSSSYIYYADSVKGRFTISRDNAKNSLYLQMNSLRAEDTAVYYCARVSYGGYFDYWGQGTLVTVSS
VL: not shown
Consider B7, for which, in the experiment with human recPrP_(23-230) [1], the binding result is “binds”.

B8: Fab44 (Fab, V domains shown)
VH: QVQLVESGGGVVQPGRSLRLSCAASGFTFSSYGMHWVRQAPGKGLEWVAVISYEGSNKYYADSVKGRFTISRDNSKNTLYLQMNSLRAEDTAVYYCARVAYAVGSSYRSSSYSPGFDVWGQGTLVTVSS
VL: not shown
notes: as for B2
Consider B8, for which the binding result in experiment [4] is recorded as “binds”.

B9: Fab69 (Fab, V domains shown)
VH: QVQLVESGGGVVQPGRSLRLSCAASGFTFSSYGMHWVRQAPGKGLEWVAVISYEGSNKYYADSVKGRFTISRDNSKNTLYLQMNSLRAEDTAVYYCARVHPGVHYRPGGFDYWGQGTLVTVSS
VL: not shown
notes: as for B2
For B9, the binding result in experiment [4] is “binds”.

B10: DK_VH3-07 Fab (Fab, V domains shown)
VH: EVQLVESGGGLVQPGGSLRLSCAASGFTFSSYWMSWVRQAPGKGLEWVANIKQDGSEKYYVDSVKGRFTISRDNAKNSLYLQMNSLRAEDTAVYYCARSYGGYFDYWGQGTLVTVSS
VL: QSALTQPASVSGSPGQSITISCTGTSSDVGGYNYVSWYQQHPGKAPKLMIYEVSNRPSGVSNRFSGSKSGNTASLTISGLQAEDEADYYCTSYTSSSTHVVFGGGTKLTVL
notes: source: expressed in bacteria (pPE2 vector), purified
Take B10: in the experiment with human recPrP_(23-230) [5], the EC50 came out at 62800 nM and the binding result is recorded as “no binding (tested: Fabs tested starting from 3 μM)”.

B11: Fab13 (Fab, V domains shown)
VH: QVQLVESGGGVVQPGRSLRLSCAASGFTFSSYGMHWVRQAPGKGLEWVAVISYEGSNKYYADSVKGRFTISRDNSKNTLYLQMNSLRAEDTAVYYCARVWSPDGYPGFDYWGQGTLVTVSS
VL: not shown
notes: as for B2
With B11, the binding result in experiment [4] is “binds”.

B12: Fab53 (Fab, V domains shown)
VH: QVQLVESGGGVVQPGRSLRLSCAASGFTFSSYGMHWVRQAPGKGLEWVAVISYEGSNKYYADSVKGRFTISRDNSKNTLYLQMNSLRAEDTAVYYCARVYVYRSYRHSSGYGYPGFDVWGQGTLVTVSS
VL: not shown
notes: as for B2
As to B12, the binding result in experiment [4] is “binds”.

B13: Fab61 (Fab, V domains shown)
VH: QVQLVESGGGVVQPGRSLRLSCAASGFTFSSYGMHWVRQAPGKGLEWVAVISYEGSNKYYADSVKGRFTISRDNSKNTLYLQMNSLRAEDTAVYYCARVYPYPYVYAESDGSYPGFDVWGQGTLVTVSS
VL: not shown
notes: as for B2
As for B13, the binding result in experiment [4] is reported as “binds”.

B14: BB_VH3-66 (antibody, V domains shown)
VH: EVQLVESGGGLVQPGGSLRLSCAASGFTVSSNYMSWVRQAPGKGLEWVSVIYSGGSTYYADSVKGRFTISRDNSKNTLYLQMNSLRAEDTAVYYCARSGSYGGYFDYWGQGTLVTVSS
VL: not shown
For the molecule B14, the binding result in the experiment with human recPrP_(23-230) [1] is “binds”.

B15: DW_VH3-53 (antibody, V domains shown)
VH: EVQLVETGGGLIQPGGSLRLSCAASGFTVSSNYMSWVRQAPGKGLEWVSVIYSGGSTYYADSVKGRFTISRDNSKNTLYLQMNSLRAEDTAVYYCARVSYGGYYFDYWGQGTLVTVSS
VL: not shown
On to B15, for which the binding result with human recPrP_(23-230) [1] is “binds”.

For the origin of these results see paper PMC7506995 (EMBO Molecular Medicine, 2020).
